# Data as given in PMC8510529 (mBio, 2021).
# Changes are numbered by the printed parent chain.
# B1: WNV-99 (antibody, V domains shown)
# VH: QVRLVESGGGVVQPGRSLRLSCAASGFTLSSYGMHWVRQAPGKGLEWVAIISYDGSDKYYADSVKGRFTISRDNSKNTLYLQMNSLRPEDTAMYYCAKPDRSSSPFAHWGQGTLVTVSS
# VL: SYELTQPPSVSVSPGQTARITCSGDALPKQYAFWYQQKPGQTPVVVISKDSERPSGIPERFSGSSSGTTVTLTISGVQAEDEADYYCQSADSSGIWVFGGGTKLTVL
# B2: WNV-98 (antibody, V domains shown)
# VH: QVQLVESGGGLVKPGGSLRLSCAASGFPFTNYYMSWIRQAPGKGLEWISYITSRGDTAYYADSVKGRFTVARDNSKNSLYLQMNSLRAEDTAMYFCARGGDDYADSWGQGILVTVSS
# VL: EIVLTQSPATLPLSPGERATLSCRASQSINTNLAWYQQKPGQAPRLLIYETSHRASAIPARFSGSGSGTDFTLKISSLEPEDLAIYYCQQYRNWPQTFGQGTRLEIK
# B3: WNV-96 (antibody, V domains shown)
# VH: QVQLVQSGAEVKKPGASVKVSCRPSGYIFTNYYIEWVRQAPGQGLEWMGIINPSGGKTTYAQKFQGRVTMTSDTSTSTVYMELSSLRSDDTAVYYCARDGNGSDYWGQGTRVTVSS
# VL: DVQMTQSPSSLSASVGDRVTITCRASQNINNYLNWYQQKPGRAPKLLIYATSNLESGVPSRFSGSRSGADFTLTISSLQPEDFASYYCQQSYNAPRTFGHGTKVEIK
# notes: also called IgG1-WT variant of WNV-96
# B4: WNV-104 (antibody, V domains shown)
# VH: QVQLVESGGGVVQPGTSLRLSCAASGFTFRSYGMHWVRQAPGKGLEWVALIWYDGSNKYYADSVKGRFTISRDNSRSTLYLQMNSLRAEDTAVYYCARDLGEYDSLVGPLYTARLGYWGQGTLVTVSS
# VL: DIQMTQSPSSLSASVGDRVTMTCQASQDISNYLNWYQQKPGKAPNLLIYDASNLETGVPSRFSGSGSGTDFTFTISSLQPEDIATYYCQQYDNLPITFGQGTRLEIK
# B5: WNV-117 (antibody, V domains shown)
# VH: EVQLLESGGGLVQPGGSLRLSCAASGFTFSNYAMSWVRQAPGKGLEWVSSISDRGDYTYYADSVKGRFTISRDKSRNTLYLQIKSLRAEDTAVYYCAKCWGRGSYSGIPD
# VL: B4 VL with M21I, T22S, Q27H, S30T, Y32F, N45K, T56A, P95F
# B6: WNV-116 (antibody, V domains shown)
# VH: QMQLVESGGGVVQPGRSLRLSCVASGFNFKTYVMNWVRQAPGKGLEWVAVILSDGDNKYYADSVKGRFTISRDNSKNTLFLQMDSLRADDTAVYYCTRVPHCSTSSCYKEYYNYYMDVWGKGTTVSVSS
# VL: EIVLTQSPATLSLSPGDRATLSCRASQSLSTSLAWYQQKPGQAPRLVIYDASNRAADIPARFSGSGSGTDFTLTIRSLEPEDFAVYYCQQRSNWPPRYTFGQGTKLEIK
# B7: WNV-100 (antibody, V domains shown)
# VH: QLQLQESGSGLVKPSQTLSLTCTVSGDSIGSGGFSWTWIRQPPGKGLEWIGNIYHSGGTYYNPSLKSRVTISIDNSTHFSLKLSSVTAADSAVYYCARDRGMVIKRRPWSYGLDVWGQGTTVSVSS
# VL: QSVLTQPPSASGTPGQRVTISCSGGSSNIGSNSVSWYQHLPRTAPKLLIYSNNQRSSGVPDRFSGSKSGTSASLAISGLQSDDEADYYCAAWDDSLHVLFGGGTKLTVL
# B8: WNV-113 (antibody, V domains shown)
# VH: QITLKESGPTLVKPTQTLTVTCTFSGFSLNTNGVGVGWIRQPPGKALEWLALIYWDDVKRYRPSLESRLTITKDTSKNQVVLTMTDMDPVDTGTYYCAHRFHSRGWYTFDYWGQGTRVTVSS
# VL: SYVLTQPPSVSVAPGQTARITCGGNNIGGKNVHWYQQKPGQAPVLVVYDDNDRPSGIPERFSGSNSGNTATLTISRVEAGDEADFYCQVWDSNSEHVVFGGGTKLTVL
# B9: WNV-120 (antibody, V domains shown)
# VH: KVQLEESGGGWVKPGRSLRLSCGASGFRFDDYAMHWVRQVPGKGLEWVSGISWDSDGIGYADSVKGRFTISRDNAKNSLFLQMNSLRAEDTALYYCVKDKGWLIQGRFDSWGQGIRVTVSS
# VL: DIVVTQSPDSLAVSLGERVTINCKTSQSVLYTFNNQNYLAWYQQKSGQPPKLLIYWASTRESGVPDRFSGSGSGTDFTLTISRLQAEDVAVYYCQQFYISPPGTFGQGTKVEIK
# B10: WNV-103 (antibody, V domains shown)
# VH: EVQLVESGGGLLQPGGSLRLSCAASGFSFSRYWMHWVRQAPGKGLIWVSRINTDGSTTIYADSVKGRFTVSRDNAKNTLFLQMSRLRPEDTAVYYCARVIASPGISYGMDVWGHGTTVTVSS
# VL: SHELTQPPSVSVSPGQTATITCSGDALPKQYAYWYQQKSGQAPVLVIYKDTKRPSGIPERFSGSSSGTVVTLTISGVQAEDEADYYCQSADISSTYVVFAGGTKLTVL
# B11: WNV-95 (antibody, V domains shown)
# VH: QVQLQESGPGLVKPSQTLSLTCTVSGGSINSGAFYWSWIRQHPGKGLEWIGFIYYSGSTYYNPSLRSRVTISVDTSKNQFSLKLISVTAADTAVYYCARDRPDDPGPYFDSWGRGTLVTVSS
# VL: QSALTQPASVSGSPGQSITISCTGTSNDVGRYNSVSWYQQHPGNAPKLMIYDVSNRPSGVSNRFSGSKSGNTASLTISGLQAEDEADYYCSSYTSSSSVVFGGGTKLTVL
# B12: WNV-97 (antibody, V domains shown)
# VH: QVQLVESGGGLVQPGGSLRVSCAASGFTFSTYEMNWVRQAPGKGLEWVSYISNSGTIIYYADSVKGRFTISRDNAKNSLYLQMNSLRAEDTAIYYCGRVLRDRDVVAGPPARVWDYYYYGMDVWGQGTTVTVSS
# VL: DIVMTQSPLSLPVTPGEPASISCRSSQSLLHSSGYNCLDWYLQKPGQSPQLLIYLRSNRASGVPDRFSGSGSGTDFTLKISRVEAEDVGVYYCMQTLQTPWTFGQGTKVEIK
# Biological target: T1, recombinant soluble WNV NS1 protein (Native Antigen) (West Nile virus, strain of bought …, UniProt Q9Q6P4)
# T1 construct: also called recombinant WNV NS1; recombinant, hexameric WNV NS1; source: bought: Native Antigen
# Assay: ELISA
# Settings: both partners purified
# T1 sequence (Q9Q6P4 792-1143): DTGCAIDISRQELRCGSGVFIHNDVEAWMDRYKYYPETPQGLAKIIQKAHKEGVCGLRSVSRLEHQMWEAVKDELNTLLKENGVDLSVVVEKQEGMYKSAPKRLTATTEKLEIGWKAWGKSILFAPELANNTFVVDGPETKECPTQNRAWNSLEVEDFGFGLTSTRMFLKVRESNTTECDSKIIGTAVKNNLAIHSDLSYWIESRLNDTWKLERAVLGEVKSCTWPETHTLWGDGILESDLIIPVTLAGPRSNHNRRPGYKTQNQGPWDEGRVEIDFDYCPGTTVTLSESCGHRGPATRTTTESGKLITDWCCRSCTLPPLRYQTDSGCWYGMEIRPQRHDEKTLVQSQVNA
row,Binder,binding result
1,B1,binds
2,B2,binds
3,B3,binds
4,B4,binds
5,B5,binds
6,B6,binds
7,B7,binds
8,B8,binds
9,B9,binds
10,B10,binds
11,B11,binds

# Biological target: T2, JEV NS1 protein (Native Antigen) (Japanese encephalitis virus, strain not …, UniProt P27395)
# T2 construct: source: bought: Native Antigen
# Assay: ELISA
# Settings: both partners purified
# T2 sequence (P27395 795-1146): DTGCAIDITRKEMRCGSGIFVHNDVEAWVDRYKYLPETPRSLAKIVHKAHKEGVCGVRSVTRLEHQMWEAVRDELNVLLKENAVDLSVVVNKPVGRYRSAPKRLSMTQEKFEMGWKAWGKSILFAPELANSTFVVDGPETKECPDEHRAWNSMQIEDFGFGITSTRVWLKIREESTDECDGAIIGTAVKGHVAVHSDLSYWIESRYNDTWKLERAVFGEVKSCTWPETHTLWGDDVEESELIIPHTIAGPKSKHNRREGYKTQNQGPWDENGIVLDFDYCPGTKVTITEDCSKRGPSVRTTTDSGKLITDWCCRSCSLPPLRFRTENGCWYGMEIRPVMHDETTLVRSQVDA
row,Binder,binding result
1,B1,binds
2,B7,binds
3,B9,binds

# Biological target: T3, DENV2 NS1 protein (Native Antigen) (Dengue virus type 2, strain  …, UniProt P29990)
# T3 construct: source: bought: Native Antigen
# Assay: ELISA
# Settings: both partners purified
# T3 sequence (P29990 776-1127): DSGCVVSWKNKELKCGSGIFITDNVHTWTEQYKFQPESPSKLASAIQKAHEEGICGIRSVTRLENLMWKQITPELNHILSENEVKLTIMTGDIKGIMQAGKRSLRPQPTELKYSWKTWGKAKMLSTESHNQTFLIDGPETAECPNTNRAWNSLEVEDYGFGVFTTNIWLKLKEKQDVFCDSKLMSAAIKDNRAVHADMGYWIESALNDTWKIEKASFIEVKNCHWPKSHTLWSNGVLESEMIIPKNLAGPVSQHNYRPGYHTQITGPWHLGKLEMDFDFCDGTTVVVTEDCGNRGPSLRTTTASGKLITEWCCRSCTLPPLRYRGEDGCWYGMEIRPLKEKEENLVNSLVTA
row,Binder,binding result
1,B7,binds

# Biological target: T4, TBEV NS1 protein (Native Antigen) (Tick-borne encephalitis virus, strain …, UniProt P14336)
# T4 construct: source: bought: Native Antigen
# Assay: ELISA
# Settings: both partners purified
# T4 sequence (P14336 777-1128): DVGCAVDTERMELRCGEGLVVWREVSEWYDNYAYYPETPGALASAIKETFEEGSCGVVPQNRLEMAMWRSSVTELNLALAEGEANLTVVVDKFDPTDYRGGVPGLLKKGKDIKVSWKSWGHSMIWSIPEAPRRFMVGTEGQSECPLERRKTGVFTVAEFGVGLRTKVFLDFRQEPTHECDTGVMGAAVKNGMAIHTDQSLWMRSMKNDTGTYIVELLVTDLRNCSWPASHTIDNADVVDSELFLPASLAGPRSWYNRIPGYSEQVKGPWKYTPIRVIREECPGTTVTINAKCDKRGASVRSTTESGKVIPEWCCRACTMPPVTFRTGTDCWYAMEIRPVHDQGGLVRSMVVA
row,Binder,binding result
1,B1,binds
2,B7,binds
3,B12,binds

# Biological target: T5, full-length WNV NS1 (strain 382-99), wild type, expressed in HEK293T cells (West Nile virus, New York 1999, strain …, UniProt Q9Q6P4)
# T5 construct: also called WT NS1; WT WNV NS1; source: HEK293T, transfected (pFM-A1.2), on fixed cells
# Assay: flow cytometry on cells
# Settings: one partner purified
# T5 sequence (Q9Q6P4 792-1143): as the sequence (Q9Q6P4 792-1143) above
row,Binder,binding result
1,B1,binds
2,B2,binds
3,B3,binds
4,B4,binds
5,B5,binds
6,B6,binds
7,B7,binds
8,B8,binds
9,B9,binds
10,B10,binds
11,B11,binds
